Here are results for 10 molecules from US20260256927A1 (Merck Sharp & Dohme, published 2026).

Test [1] addresses T1, IL-2Rβ-Fc (Acro Biosystems, catalog #ILB-H5253) (UniProt P14784 27-239, limits assumed).
T1 construct: Bought reagent; Captured on an anti-Fc chip as SPR ligand; also called CD122; not shown: Fc part of the bought fusion
T1 sequence (looked up): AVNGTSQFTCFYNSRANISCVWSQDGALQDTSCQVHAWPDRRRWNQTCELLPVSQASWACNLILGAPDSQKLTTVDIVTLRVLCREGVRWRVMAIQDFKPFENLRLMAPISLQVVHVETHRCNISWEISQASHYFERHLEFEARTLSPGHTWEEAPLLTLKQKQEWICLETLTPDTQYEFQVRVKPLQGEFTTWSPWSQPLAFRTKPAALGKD
Put plainly: SPR, kinetic binding to IL-2 receptor. For orientation: Surface plasmon resonance follows binding to a sensor surface in real time, without labels.

The target in test [2] is T2, IL-2Rα-Fc (Acro Biosystems, catalog #ILA-H5251) (UniProt P01589 22-217, limits assumed).
T2 construct: Bought reagent; Captured on an anti-Fc chip as SPR ligand; also called CD25; not shown: Fc part of the bought fusion
T2 sequence (looked up): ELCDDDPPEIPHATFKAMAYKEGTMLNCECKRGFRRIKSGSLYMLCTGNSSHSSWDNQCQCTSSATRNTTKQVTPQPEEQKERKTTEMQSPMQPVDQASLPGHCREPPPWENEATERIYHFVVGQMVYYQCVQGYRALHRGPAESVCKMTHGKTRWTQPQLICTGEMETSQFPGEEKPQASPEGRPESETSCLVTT
The experiment in a line: SPR, kinetic binding to IL-2 receptor.

Test [3] addresses T1, IL-2Rβ-Fc (Acro Biosystems, catalog …). The experiment in a line: SPR (Biacore T200), kinetic; receptor-Fc captured on anti-Fc CM5 chip, IL-2 variant as analyte. As for the experimental part: (§1) Anti-Fc polyclonal antibodies were immobilized onto a CM5 chip (GE Life Sciences) using amine coupling chemistry (from Amine Coupling Kit, GE Life Sciences). The immobilization steps were carried out at a flow rate of 25 μL/minute in 1×HBS-EP+ buffer (GE Life Sciences; 10× Stock diluted before use). The sensor surfaces were activated for 7 minutes with a mixture of NHS (0.05 M) and EDC (0.2 M). The anti-Fc antibodies were injected over all four flow cells at a concentration of 25 μg/mL in 10 mM sodium acetate, pH 4.5, for seven minutes. Ethanolamine (1 M, pH 8.5) was injected for seven minutes to block any remaining activated groups.
(§2) Kinetic binding experiments were performed at 25° C. using 1×HBS-EP+ with 0.05% BSA buffer. IL-2Rα-Fc or IL-2Rβ-Fc (Acro Biosystems, catalog #ILA-H5251, ILB-H5253) was injected over the anti-Fc surface at concentrations of 3-10 μg/mL for 12 seconds at a flow rate of 10 μL/minute on flow cells 2, 3 and 4, followed by a buffer wash for 30 seconds at the same flow rate. Kinetic characterization of conjugated or unconjugated aldesleukin or variants was carried out in a range of concentrations from 1 nM-10 μM and one injection of no antigen. After capturing ligand (IL-2Rα-Fc or IL-2Rβ-Fc) on the anti-Fc surface, the analyte (IL-2 variant) was bound for 60 seconds, followed by a 180 second dissociation phase at a flow rate of 50 μL/min. Between each ligand capture and analyte binding cycle, regeneration was carried out using two injections of 10 mM Glycine pH 1.5 for 30 seconds at 30 μL/minute, followed by a 30 second buffer wash step.

Test [4] deals with T2, IL-2Rα-Fc (Acro Biosystems, catalog …). The test is described as above. How it is done:
as §1, §2

Test [5] shares this target. Put plainly: SPR, receptor-Fc captured on anti-Fc chip.

B1: Aldesleukin_S4/Y30/K34 pAMF (SP10480) conjugated to SC547 stump (ligand)
chain: MPTSFSTKKTQLQLEHLLLDLQMILNGINNFKNPFLTRMLTFKFYMPKKATELKHLQCLEEELKPLEEVLNLAQSKNFHLRPRDLISNINVIVLELKGSETTFMCEYADETATIVEFLNRWITFSQSIISTLT
modifications: X5, X31, X35 = pAMF (S4, Y30, K34), each conjugated to SC547 (conjugation stump)
notes: also called SP10504 stump conjugate
Take B1: the Kd (commonly the free concentration of one partner at which half of the binding sites on the other are occupied at equilibrium, for simple one-to-one binding) in test [1] amounted to 700 nM.

B2: Aldesleukin_S4/K34/V114 pAMF (SP10774) conjugated to SC547 stump (ligand)
chain: MPTSFSTKKTQLQLEHLLLDLQMILNGINNYKNPFLTRMLTFKFYMPKKATELKHLQCLEEELKPLEEVLNLAQSKNFHLRPRDLISNINVIVLELKGSETTFMCEYADETATIFEFLNRWITFSQSIISTLT
modifications: X5, X35, X115 = pAMF (S4, K34, V114), each conjugated to SC547 (conjugation stump)
notes: also called SP10782 stump conjugate
Turning to B2, the Kd in test [1] was found to be 500 nM; in test [2] it was 100 nM.

B3: Aldesleukin_S4/Y30/K34/Q73 pAMF (SP10776) conjugated to SC547 stump (ligand)
chain: MPTSFSTKKTQLQLEHLLLDLQMILNGINNFKNPFLTRMLTFKFYMPKKATELKHLQCLEEELKPLEEVLNLAFSKNFHLRPRDLISNINVIVLELKGSETTFMCEYADETATIVEFLNRWITFSQSIISTLT
modifications: X5, X31, X35, X74 = pAMF (S4, Y30, K34, Q73), each conjugated to SC547 (conjugation stump)
notes: also called SP10784 stump conjugate
With B3, the results for the equilibrium dissociation constant (Kd) in test [1] and in test [2] were 300 nM and 9 nM, respectively.

B4: Aldesleukin_S4/Y30/K34/V114 pAMF (SP10777) conjugated to SC547 stump (ligand)
chain: MPTSFSTKKTQLQLEHLLLDLQMILNGINNFKNPFLTRMLTFKFYMPKKATELKHLQCLEEELKPLEEVLNLAQSKNFHLRPRDLISNINVIVLELKGSETTFMCEYADETATIFEFLNRWITFSQSIISTLT
modifications: X5, X31, X35, X115 = pAMF (S4, Y30, K34, V114), each conjugated to SC547 (conjugation stump)
notes: also called SP10785 stump conjugate
Regarding B4, in test [1], the Kd is 200 nM.

B5: Ald-6HIS_Q73pAMF (SP9965), unconjugated (ligand)
chain: MPTSSSTKKTQLQLEHLLLDLQMILNGINNYKNPKLTRMLTFKFYMPKKATELKHLQCLEEELKPLEEVLNLAFSKNFHLRPRDLISNINVIVLELKGSETTFMCEYADETATIVEFLNRWITFSQSIISTLTGGSHHHHHH
modifications: X74 = pAMF (Q73 in SEQ ID NO: 2/3 numbering)
notes: also called Aldesleukin-6His Q73TAG p-azidomethyl-L-phenylalanine
In the case of B5, the Kd was found to be 80 nM in test [3] and 7 nM in test [4].

B6: Ald-6HIS_R80pAMF (SP9968), unconjugated (ligand)
chain: MPTSSSTKKTQLQLEHLLLDLQMILNGINNYKNPKLTRMLTFKFYMPKKATELKHLQCLEEELKPLEEVLNLAQSKNFHLFPRDLISNINVIVLELKGSETTFMCEYADETATIVEFLNRWITFSQSIISTLTGGSHHHHHH
modifications: X81 = pAMF (R80 in SEQ ID NO: 2/3 numbering)
notes: also called Aldesleukin-6His R80TAG p-azidomethyl-L-phenylalanine
In the case of B6, the Kd is 400 nM in test [3] and 20 nM in test [4].

B7: Aldesleukin-6His_S4/Y30/K34/V114 pAMF (SP10687) conjugated to SC547 stump (ligand)
chain: MPTSFSTKKTQLQLEHLLLDLQMILNGINNFKNPFLTRMLTFKFYMPKKATELKHLQCLEEELKPLEEVLNLAQSKNFHLRPRDLISNINVIVLELKGSETTFMCEYADETATIFEFLNRWITFSQSIISTLTGGSHHHHHH
modifications: X5, X31, X35, X115 = pAMF (S4, Y30, K34, V114), each conjugated to SC547 (conjugation stump)
notes: also called SP10727 stump conjugate
Consider B7, for which the values for the dissociation constant Kd in test [1] and in test [2] were 1000 nM and 100 nM, respectively.

B8: SP10725 (Aldesleukin-6His_S4/Y30/K34/R80 pAMF conjugated to SC579) (ligand)
chain: MPTSFSTKKTQLQLEHLLLDLQMILNGINNFKNPFLTRMLTFKFYMPKKATELKHLQCLEEELKPLEEVLNLAQSKNFHLFPRDLISNINVIVLELKGSETTFMCEYADETATIVEFLNRWITFSQSIISTLTGGSHHHHHH
modifications: X5, X31, X35, X81 = pAMF (S4, Y30, K34, R80), each conjugated to SC579 (releasable 20 kDa mPEG Fmoc-DBCO linker)
notes: also called SP10725 PEG conjugate
In the case of B8, in test [5], the binding result is “no binding”.

B9: Ald-6HIS_S4pAMF (SP9954) conjugated to DBCO 2 x 10 kDa PEG (PEG2) (ligand)
chain: MPTSFSTKKTQLQLEHLLLDLQMILNGINNYKNPKLTRMLTFKFYMPKKATELKHLQCLEEELKPLEEVLNLAQSKNFHLRPRDLISNINVIVLELKGSETTFMCEYADETATIVEFLNRWITFSQSIISTLTGGSHHHHHH
modifications: X5 = pAMF (S4) conjugated to branched 20 kDa PEG (DBCO 2 x 10 kDa PEG, PEG2)
notes: also called SP9954 PEG2 conjugated
In the case of B9, binding in test [4] was put at a Kd of 100 nM.

B10: Ald-6HIS_R80pAMF (SP9968) conjugated to DBCO 2 x 10 kDa PEG (PEG2) (ligand)
chain: MPTSSSTKKTQLQLEHLLLDLQMILNGINNYKNPKLTRMLTFKFYMPKKATELKHLQCLEEELKPLEEVLNLAQSKNFHLFPRDLISNINVIVLELKGSETTFMCEYADETATIVEFLNRWITFSQSIISTLTGGSHHHHHH
modifications: X81 = pAMF (R80) conjugated to branched 20 kDa PEG (DBCO 2 x 10 kDa PEG, PEG2)
notes: also called SP9968 PEG2 conjugated
B10: the Kd in test [4] amounted to 100 nM.
